{"source": "a protein production outcome set (Wang et al. 2014)", "assay": "label from the status in PepcDB records"}
{"sequence": "VPPPGTMVMVERKVGSWVDGQPIDLQRDWRSWEQLPDSLKVAVIAGEDQHFAEHHGFDLPAIQQALAHNERGGSIRGASTLSQQVAKNVFLWSGRSWLRKGLEAWFTLLIETLWTKQRILEVYLNSAEWGPGVFGAQAAARYHFGLDAERLSRTQASQLAAVLPSPLKWSAARPGPYVRQRAAWIRQQMWQLGGDDYLLRLER", "values": [{"measurement": "protein production", "value": "failed"}]}
{"sequence": "MRIETDRLVIRDFEERDAERLYDYLANPPVRCFLDEKINSYDEALRKIRERQGQSDQGDFYAVCLKNAEWLIGEVFWVKEEPDTYSIGWNFNLNYGGKGYATEAVKAAIEELFRGGARRIYAYVEEDNLPSQRLCDRLGMRREGLFLEFISFINNPDGSPRYENTYQYAILKREWLGEGKAT", "values": [{"measurement": "protein production", "value": "failed"}]}
{"sequence": "MTSVLEKRHAPKQRAEAQRALTGEDFVGDEAPGKDLPSRPRLDPAEFIKANMGLVPVLALPEIRFYTAHPGSGLRRLVDPEDDADADDDTPEPQPPYWAYAWAGGAVLARHILNHPKTVAGRRVLDLGAGSGIVGIAAAKAGASEVIAAEIDRNGVAAIGLNAAANGVEITIVHQDITMGSPPAVDLVLAGDVFYGREVALRVIPFLDRCLAAGIEVLVGDPRRHDLPLSRLRLLAEYQVPDFGDAKDAALKPSGVFRFEAETAPALAGAIKPSP", "values": [{"measurement": "protein production", "value": "failed"}]}
{"sequence": "MKIIVVGGGKVGKALCRSLVEEEHDVILIEENESVLNHVTKRLDIMGIVGNGANFRILEQADVQHCDIFIAITDKDEVNMVAAVLAKRMGAKETIVRVRNPEYSNTYFKDKNFLGFSLVVNPELLTARYIANMVDFPNARSVEHFVNGRVMLMEFKIVDGNNLCQMSLNQFRKRFNNIVICAIERGNELIIPDGDAVIQSGDKIFVTGKRMEMIHFHNFVKNKVIKHLMIIGAGRISYYLLNILKTTNRHLQVKVIELNPKKAELFSQEFPHIHVVQGDGTAKDILLEESAANYDAIATLTGVDEENIIASMFLETLGVQKNITKVNRTSILEIINPEQFSSIITPKSIAVDSMMHFIRGRVNAQDSNLDAMHHVANGRIETLQFEIRQTNKMAGKTLSELHFKTNVLIAAIIRNGKTIFPTGDDILEVGDKIVVITLLTNITHIYDLLKR", "values": [{"measurement": "protein production", "value": "failed"}]}
{"sequence": "MTDATVGDEAAAPTVVRLDASCTTQEVEAGEYYHATVNGVVEYGAFVDLSEHVSGLIHESTYSGDPDLAVDDDVIVHLSAVRDNGDLSFEFVDPEEYRTEQRSHAYERTTADAVGSRIGDTVHIEGEVVQIKQTAGPTVFRVRDETSAIPCTAFEDAGVRAHPGVEVGDIVHVSGDADDREGTTQLEVDAFEVLSGGDSADVARRLDAALAEQADPVDVDALVDWPALEQLLPDLRSVARTLRRAVLEGRPIRMRHHADGDGMCASLPVQYALRQFIEDTHQDEDAARHLLKRLPSKAPYYEMEDATRDLNFALEDRARHGQKLPLLLMLDNGSTEEDTPAYKTLDNYDIPIVVVDHHHPDPGAVDPLVDEHVNPYLHGEDYRITTGMLCVELARMIYPGITSDLEHVPAVAGLSDRSKADAMTDYLDLARDAGYDESFLQQMSEALDYEAYMLRYDHGTQVIADILNVDGDAQRHRELVPFLDRLASEAVAEQLDATRSHVEHERVASGANLYRIDVENHAHRFTYPRAGENNRRDPRPQGRGNRGAGDHHRLRPGLRGAPVGRRAPGHPHDGRRTQRRTPWGRRLRRRPPGRRLDPVRSRDA", "values": [{"measurement": "protein production", "value": "failed"}]}
{"sequence": "MSGADTKKKLVGRHKRVAFMDVAGDGKTYTRMTGFTSMSESKNASEYSRHYVDEESERTDVVGYAPSNDYEFDRYTNDLVQQKISEITDDELLGSDAQVSIVVVDLFDIKTDTPNTCVARKRDWSVVPDNSGDGTDALIYKGSLKANGEKIKGTATTTDNWQTCTFAAD", "values": [{"measurement": "protein production", "value": "failed"}]}
{"sequence": "MNAATLVDTHAVDTALQEAFEAAPEGFALFDAEDRCVIWNARYGELWSKWGVTLAVGATFESLLLAGLAAGRFPEANGDRAAWLAHQLGRRKLDRIEEIREEFGEYLRFESRRTPAGGLITTCANLTNLRRREAQALAARSFLDTIVENTPAMLFVKDGDTGAFLLVNRAAENQLGVPRAELLGKSDYDFFPKEQADAFAADDRRVIASGKLVTIDEEPLDTPHNGRRWLQTRKIAIPGEDGRRHLLVICEDITERKAGAAALAEALQKAEAGSVAKSEFLANMSHEIRTPLNGVIGMAEVLSRTALDDAQREMMEVILNSGRALNLLLSDILDLSKIEAGGLELSRDPLDLREAITAAVAVFKAVAESKGLVFRLTFADDFHDHVLGDALRVRQIVANLTSNAVKFTTAGSVIIEARTLVAEDGRIDLTVSVQDTGEGFDEDSADRLFERFQQADGSVTRKVGGTGLGLPIARRLARLMDGEISCVAHPGEGATFVFEALFLADGQRTPALEHHHHHH", "values": [{"measurement": "protein production", "value": "failed"}]}
{"sequence": "MHFTRALRIQLIPSFFFRAIYPLVVLLILLHAQSGLAETIYRSTDSHGRTLYSDIPTPAAKPLQPATPPARSKYRVTRVIDGDTIVLENNKRVRLLGINAPETGNRYHPGEPGGADAKKWLRGKLQGRSVYLEHDRQTHDHYKRMLAHLYLPDGEHINLSLVEKGLAIANLIPPNLLHANTLIRAQQRAETRKLGIWSMQHYQPRPLIKLTEKPFGWQRYRVKAKVLKRNHRFSRLIISDNLDLSFANRDLALFPPLETYLNRPLEVRGWVSRRKNHFSIRIQHPSALILY", "values": [{"measurement": "protein production", "value": "failed"}]}
{"sequence": "MAIAPTIQPLPAPWVARMAAGEVIDSLAAVVRELCENSLDAGTQRLVIDLWPEQWRVRVADDGMGLSLENLQLAALAHTSSKLSPDRFTAEQLGFRGEALHSLARLGRLTIASRTADAAAGWQISYDIGGQPQVATPIAIAPGCIVEVQQLFQDWLERRQSQPSPAQQLRAVQQQIQNLVLAHPSITVQVTQNDRPWLAFAPVHHPQERLLQLLPNTSPADWRSQSLDLGSEGQLQVVVGLPDRCHRRRPDWVKVAVNGRVVRVSELEQAMIGALHRSLPRDRFPVVFAHLQVPPSQVDWHRHPAKAELFLQDLPVWCERIQEAIAQTLPLDPAEEIELPASTALLRVAETTGSYSESPSHLRAIAQVLNTYVLAEQGDSLWLIEQHIAHERVLFEQLQDDWQLVACQQPILLSKLSLEQRLQLDRLGITAEDFGEDLWAIRHIPAALAQREDLVEALLELSRGWDLSAAQAAIACRTAIRNGTLLYPEEQQTLIDRWQHCRQPRTCPHGRPIALVLPETSLARYFRRQWMIGRSHGLGDP", "values": [{"measurement": "protein production", "value": "failed"}]}
{"sequence": "MIARPMVPTADQLATDDLSLSDRSRFWLAALEASGQGVAIADATHPDLILTYVNSAFKKLTGYNAAEALGKSCRFLQGSDRAQPGITTLRQAIRNGQACEVVLRNYRKDGSLFWNQLTIAPITDGQGKVSHYVALQRDITAFKEQEQALQRQGIYDEHSGLPKRQLFLDRLNQALAWSQFSGVPGALLLIDLGLPAHLDGSPSLSPDAEENLEIIANRLQAYVRPHETLAHLNHHQFGLLLLDPDVQLRAEERAHGIQTLIRDRLAGFEGGAHIGIVPLTPETPATVLLQAAEAAAMTARSQQQGHLSLEASAIVAAPEQYSRDRDWQQAIAAGELTLALQPQMGLRNRQLRGFEVQLRWQHPQQGTLLASQLMEHLEQSQHRETVGRWFLDQAGQLLSQWRNSAQFSGLFALSLLPQQWKSPSFIHDLRSLLETYQIPPEQLELDLPAQSLAESAAESWDWVYAVRDLGIGIGLADFGSRSIGLYDLRNLPLTTLKLERRFVRGLPDDANDRAIVRGVVAMSQALKVRIVARGVDTVDQAKFLARAECDAMQGLAYSAPLTIEEALQVARSPQAPAW", "values": [{"measurement": "protein production", "value": "failed"}]}
{"sequence": "MSLFKRSVVSEITSHAGVVFSTLVVVWLSVLLVRLLGEAAGGSIGADVVLGLAAFSTITALPTILAVSLFIAVLTTVTRNYRESEMVVWFASGLSLADWLRPVARVAVPIAMLVAALTLVASPWAYRQIGEYRERFEQRSDLSKVTAGQFAESGRGDRVFFAEDPVRPGDELGAVFARSIDPEWLSVLTASNARSETLPNGDRFLVLGEGHRYDLKPGTPEIRLVNFDQYGVRLESKAGEDPMAEARAAAERSSKARSTMQLVQDNTDSSWSQIMWRVAMPLAALNLALLAIPLGAVNPRLGRSGDLLIAGLVGLLYMNMINLSRAWISSGKISFSIGVWAVHAVVALLAAYLLMRRLRVKAPRNAGRGA", "values": [{"measurement": "protein production", "value": "failed"}]}
{"sequence": "MDAETAESLKLLKNISLYTETYGCTYNAGDTEKLMEIARNQGCVPASSAEEADAILINTCVVIDKTEQHMYERLDLYAGKLLFVTGCLPPVAADVLRTRYPKIHIIDPALIHSCYMEVGTAHVGTNAVLQIARGCNGHCTYCITRLARGKLVSFSAEDIVRQAKSIVEAGATEIQLTAQDTSSWGLDRNDGLRLPDLLRQLCAIPGNFMIRIGMANPDTLLPILDDFLDALKDPKIFLFLHIPVQSGSDSVLRLMGRRYTSAQYEEICQRARKAFPEIRISTDYIAGFSGETDEDAAKSAEQIRRTRPGKVNITRFSVRPNTPAAKMKKIPEPIKKQRSRELTDAANEVYDANNEALIGHIMTAVVTEVVKAGSVTARDRTYQNIVIMENLEIGTEITVKITGHRRHYLIGERIVP", "values": [{"measurement": "protein production", "value": "failed"}]}
{"sequence": "MIKLQLKLQGSVSVQVNAGPLAYARAFLDDTNTKRYPDNKVKLLKEVFRQFVEACGQALAVNERLIKEDQLEY", "values": [{"measurement": "protein production", "value": "failed"}]}
{"sequence": "KGSQVKLEVISDEKGAKPRTITLTREQIRLEDRAVKLTEKVINGDKIAILDIPSFYVGLTNDVKTQLQKVAKDNVSALVIDLRGNGGGALTEAIALSGLFIPSGPVVQVRDNNGRVRQDYDRDDVVYYKGPLVVIVNRFSASASEIFAAAMQDYGRALIVGEQTFGKGTVQQYRSLTRVYDQMLSPDWPSLGSVQYTIQKFYRINGGSTQLKGVTPDLLLPSFDNSEMGESNEDNALPW", "values": [{"measurement": "protein production", "value": "failed"}]}
{"sequence": "MVPHHWASLWNRQLALQTSVRRRLRKEIDLIRFLKATAAADELTGIVGIAAQVIEALGEWGVGLLTLLETVFPPIPSEVILPLAGFLTQQGSMNLILVFVTSTLGAYAGAMLLYWLGYKVGLERSIKLLSKLPLVDREDFEKAAEWFERHGKSAIFFGRLLPGVRSLISLPAGAERMNLATFSVFTVAGTGLWNALLIGAGALLGKQYHLVDQYSRFLNYAVYAGLAALLVWLIIRRVKKRKESTR", "values": [{"measurement": "protein production", "value": "failed"}]}
{"sequence": "MVKVYAPASSANMSVGFDVLGAAVTPVDGTLLGDVVSVEAADHFRLHNLGRFADKLPPEPRENIVYQCWERFCQALGKTIPVAMTLEKNMPIGSGLGSSACSVVAALVAMNEHCGKPLNDTRLLALMGELEGRISGSIHYDNVAPCFLGGMQLMIEENGIISQ", "values": [{"measurement": "protein production", "value": "failed"}]}
{"sequence": "SGGGGKAWPTHVVCSDSGLEVLYQSCDPLQDFGFSVEKCSKQLKSNINIRFGIILREDIKELFLDLALMSQGSSVLNFSYPICEAALPKFSFCGRRKGEQIYYAGPVNNPEFTIPQGEYQVLLELYTEKRSTVACANATIMCS", "values": [{"measurement": "protein production", "value": "failed"}]}
{"sequence": "MGKTRAGRFALRGQRTALLHLETMTQAVDSADSVDPRALEALNRYFGYDSFRPGQSGIVSAILTGHDVLGVMPTGAGKSICYQIPAAILPGVAIVISPLISLMRDQVDALNDVGLPAAFINTTQTPDEQDLVFAQALSGQIKLLYVAPERLETERFRNFAVRVPISLVAVDEAHCVSQWGQDFRSSYLGIGEFIAGLPTRPTVAAFTATATERVRRDIVSILGLHTPSITVTGFDRPNLYFDVISMPRKDKASWVASYIASHPDESGIVYCATRKETEALAESLNSAVAELRAAGGADVSDIGTIAVAYHGGMSADAREKAQRDFVTDRVPVVVATNAFGMGIDKSNVRFVIHHNMPESIEAYYQEAGRAGRDGEPSRCTLLWNESDIVTRRRLLDSDYENERLTPEEQEAVRASKRRLLDAMVGYCRTTDCLHAYMTRYFGETAGAAAKTDGKCVGGCANCEHTFETIDVTDIARAISRCVHDVNQHVGSGKIVKVLRGSKAQDLSYLNPESLPSFGMLDEVPEARIRDVLSQMATDGFLTIAEGRLPIVGFGPRAAETVAPEFHYDIKKIKRADARARRTPDVSTPAVGSYVPDDGDEALFQKLRALRLDIARELGKPPYIVFSDKTLRDMVRVKPITDDQFLAVNGVGESKLKQYGERFLAAIREDSGDEA", "values": [{"measurement": "protein production", "value": "failed"}]}
